A short description of this series: total protein half-life in vivo (active degradation + dilution); higher = more stable protein.
Setting [1] is: E. coli NCM3722 delta-clpP delta-lon delta-hslV, growth: N-lim chemostat, doubling time 6 h.
Where [2] appears, read: E. coli NCM3722 delta-lon, growth: N-lim chemostat, doubling time 6 h.
The mark [3] stands for this setting: E. coli NCM3722 delta-smpB, growth: N-lim chemostat, doubling time 6 h.
Where [4] appears, read: wild type E. coli NCM3722, growth: C-lim chemostat, doubling time 12 h.
Where [5] appears, read: wild type E. coli NCM3722, growth: N-lim chemostat, doubling time 12 h.
The mark [6] stands for this setting: E. coli NCM3722 delta-hslV, growth: N-lim chemostat, doubling time 6 h.
Setting [7] is: wild type E. coli NCM3722, growth: C-lim chemostat, doubling time 3 h.
Setting [8] is: wild type E. coli NCM3722, growth: C-lim chemostat, doubling time 6 h.
The mark [9] stands for this setting: wild type E. coli NCM3722, growth: P-lim chemostat, doubling time 6 h.
Where [10] appears, read: wild type E. coli NCM3722, growth: P-lim chemostat, doubling time 12 h.
Where [11] appears, read: E. coli NCM3722 delta-clpP, growth: N-lim chemostat, doubling time 6 h.
[12] abbreviates: wild type E. coli NCM3722, growth: N-lim chemostat, doubling time 6 h.

± gives the standard deviation of the averaged measurements.

In the case of “MKKRHLLSLLALGISTACYGETYPAPIGPSQSDFGGVGLLQTPTARMAREGELSLNYRDNDQYRYYSASVQLFPWLETTLRYTDVRTRQYSSVEAFSGDQTYKDKAFDLKLRLWEESYWLPQVAVGARDIGGTGLFDAEYLVASKAWGPFDFTLGLGWGYLGTSGNVKNPLCSASDKYCYRDNSYKQAGSIDGSQMFHGPASLFGGVEYQTPWQPLRLKLEYEGNNYQQDFAGKLEQKSKFNVGAIYRVTDWADVNLSYERGNTFMFGVTLRTNFNDLRPSYNDNARPQYQPQPQDAILQHSVVANQLTLLKYNAGLADPQIQAKGDTLYVTGEQVKYRDSREGIIRANRIVMNDLPDGIKTIRITENRLNMPQVTTETDVASLKNHLAGEPLGHETTLAQKRVEPVVPQSTEQGWYIDKSRFDFHIDPVLNQSVGGPENFYMYQLGVMGTADLWLTDHLLTTGSLFANLANNYDKFNYTNPPQDSHLPRVRTHVREYVQNDVYVNNLQANYFQHLGNGFYGQVYGGYLETMFGGAGAEVLYRPLDSNWAFGLDANYVKQRDWRSAKDMMKFTDYSVKTGHLTAYWTPSFAQDVLVKASVGQYLAGDKGGTLEIAKRFDSGVVVGGYATITNVSKEEYGEGDFTKGVYVSVPLDLFSSGPTRSRAAIGWTPLTRDGGQQLGRKFQLYDMTSDRSVNFR”, the “total protein half-life in vivo” value stood at 5.44 h under setting [1]; 6.75 ± 0.42 h under setting [2]; 5.88 ± 0.37 h under setting [3]; 12.6 h under setting [4]; 11.6 h under setting [5].

In the case of “MGQSKKLNKQPSSLSPLVQLAGIRKCFDGKEVIPQLDLTINNGEFLTLLGPSGCGKTTVLRLIAGLETVDSGRIMLDNEDITHVPAENRYVNTVFQSYALFPHMTVFENVAFGLRMQKTPAAEITPRVMEALRMVQLETFAQRKPHQLSGGQQQRVAIARAVVNKPRLLLLDESLSALDYKLRKQMQNELKALQRKLGITFVFVTHDQEEALTMSDRIVVMRDGRIEQDGTPREIYEEPKNLFVAGFIGEINMFNATVIERLDEQRVRANVEGRECNIYVNFAVEPGQKLHVLLRPEDLRVEEINDDNHAEGLIGYVRERNYKGMTLESVVELENGKMVMVSEFFNEDDPDFDHSLDQKMAINWVESWEVVLADEEHK”, the “total protein half-life in vivo” value by setting is: under setting [1], 7.21 ± 0.97 h; under setting [6], 5.83 ± 0.062 h; under setting [2], 5.7 ± 0.78 h; under setting [3], 5.77 ± 0.36 h; under setting [7], 3.46 ± 0.65 h; under setting [8], 6.55 ± 0.38 h. Besides, the “total protein half-life in vivo” value was 11.9 ± 0.32 h under setting [4], 12.2 ± 0.83 h under setting [5], 6.41 ± 0.34 h under setting [9] and 13.4 ± 0.35 h under setting [10].

Regarding “MKTERILGALYGQALGDAMGMPSELWPRSRVKAHFGWIDRFLPGPKENNAACYFNRAEFTDDTSMALCLADALLEREGKIDPDLIGRNILDWALRFDAFNKNVLGPTSKIALNAIRDGKPVAELENNGVTNGAAMRVSPLGCLLPARDVDSFIDDVALASSPTHKSDLAVAGAVVIAWAISRAIDGESWSAIVDSLPSIARHAQQKRITTFSASLAARLEIALKIVRNADGTESASEQLYQVVGAGTSTIESVPCAIALVELAQTDPNRCAVLCANLGGDTDTIGAMATAICGALHGVNAIDPALKAELDAVNQLDFNRYATALAKYRQQREAV”, the “total protein half-life in vivo” value reads like this: under setting [1], 4.09 ± 0.27 h; under setting [11], 3.33 ± 0.15 h; under setting [6], 3.21 ± 0.037 h; under setting [2], 3.64 ± 0.55 h; under setting [3], 3.4389 ± 0.00072 h; under setting [7], 2.89 ± 0.35 h. Also, the “total protein half-life in vivo” value is, setting by setting: under setting [8], 5.04 ± 0.58 h; under setting [4], 9.45 ± 0.66 h; under setting [12], 3.36 ± 0.19 h; under setting [5], 4.91 ± 0.38 h; under setting [9], 5.45 ± 0.4 h; under setting [10], 10.4 ± 0.37 h.

As to “MKVAVLGAAGGIGQALALLLKTQLPSGSELSLYDIAPVTPGVAVDLSHIPTAVKIKGFSGEDATPALEGADVVLISAGVARKPGMDRSDLFNVNAGIVKNLVQQVAKTCPKACIGIITNPVNTTVAIAAEVLKKAGVYDKNKLFGVTTLDIIRSNTFVAELKGKQPGEVEVPVIGGHSGVTILPLLSQVPGVSFTEQEVADLTKRIQNAGTEVVEAKAGGGSATLSMGQAAARFGLSLVRALQGEQGVVECAYVEGDGQYARFFSQPLLLGKNGVEERKSIGTLSAFEQNALEGMLDTLKKDIALGEEFVNK”, the “total protein half-life in vivo” value reads like this: under setting [1], 4.53 ± 0.53 h; under setting [11], 3.92 ± 0.44 h; under setting [6], 3.803 ± 0.013 h; under setting [2], 4.42 ± 0.25 h; under setting [3], 3.84 ± 0.068 h; under setting [7], 3.039 ± 0.028 h. For the same sequence, the “total protein half-life in vivo” value amounted to 5.65 ± 0.34 h under setting [8]; 9.69 ± 0.74 h under setting [4]; 3.98 ± 0.16 h under setting [12]; 6.2 ± 0.2 h under setting [5]; 5.94 ± 0.074 h under setting [9]; 11.8 ± 0.51 h under setting [10].

For the sequence “MNMLALTIILPLIGFVLLAFSRGRWSENVSAIVGVGSVGLAALVTAFIGVDFFANGEQTYSQPLWTWMSVGDFNIGFNLVLDGLSLTMLSVVTGVGFLIHMYASWYMRGEEGYSRFFAYTNLFIASMVVLVLADNLLLMYLGWEGVGLCSYLLIGFYYTDPKNGAAAMKAFVVTRVGDVFLAFALFILYNELGTLNFREMVELAPAHFADGNNMLMWATLMLLGGAVGKSAQLPLQTWLADAMAGPTPVSALIHAATMVTAGVYLIARTHGLFLMTPEVLHLVGIVGAVTLLLAGFAALVQTDIKRVLAYSTMSQIGYMFLALGVQAWDAAIFHLMTHAFFKALLFLASGSVILACHHEQNIFKMGGLRKSIPLVYLCFLVGGAALSALPLVTAGFFSKDEILAGAMANGHINLMVAGLVGAFMTSLYTFRMIFIVFHGKEQIHAHAVKGVTHSLPLIVLLILSTFVGALIVPPLQGVLPQTTELAHGSMLTLEITSGVVAVVGILLAAWLWLGKRTLVTSIANSAPGRLLGTWWYNAWGFDWLYDKVFVKPFLGIAWLLKRDPLNSMMNIPAVLSRFAGKGLLLSENGYLRWYVASMSIGAVVVLALLMVLR”, the “total protein half-life in vivo” value by setting is: under setting [1], 7.03 ± 0.33 h; under setting [11], 7.32 ± 0.33 h; under setting [6], 6.62 ± 0.33 h; under setting [2], 5.89 ± 0.59 h; under setting [3], 6.017 ± 0.032 h; under setting [7], 3.23 h. Further, the “total protein half-life in vivo” value worked out at 7.19 ± 1.1 h under setting [8]; 12.1 ± 1.4 h under setting [4]; 15.6 h under setting [5]; 6.74 ± 0.88 h under setting [9]; 11.1 ± 1.1 h under setting [10].

With “MSKLFWAMLSFITRLPVPRRWSQGLDFEHYSRGIITFPLIGLLLGAISGLVFMVLQAWCGAPLAALFSVLVLVLMTGGFHLDGLADTCDGVFSARSRDRMLEIMRDSRLGTHGGLALIFVVLAKILVLSELALRGESILASLAAACAVSRGTAALLMYRHRYAREEGLGNVFIGKIDGRQTCVTLGLAAIFAAVLLPGMHGVAAMVVTMVAIFILGQLLKRTLGGQTGDTLGAAIELGELVFLLALL”, the “total protein half-life in vivo” value is, setting by setting: under setting [1], 7.472 ± 0.028 h; under setting [11], 6.699 ± 0.053 h; under setting [6], 6.15 ± 0.36 h; under setting [2], 6.52 h; under setting [3], over 8 h; under setting [7], 3.48 ± 0.11 h. The “total protein half-life in vivo” value is 5.85 ± 0.84 h under setting [8]; 12.7 ± 1.4 h under setting [4]; 5.87 ± 0.4 h under setting [12]; 11.3 h under setting [5]; 5.6 h under setting [9]; 12.4 ± 1.2 h under setting [10].

As for “MSQQRPDRIKQMLHYLWQHRHLSTQQAMELFGYAEATVRRDFQYIVNQYPGMIRGHGCLDFDDSTDDKEYVFDVKRTLQSVAKREIAALARTMIKDGDCFFLDSGSTCLELAKCLADARVKVICNDIKIANELGCFPHVESYIIGGLIRPGYFSVGESLALEMINAFSVERAFISCDALSLETGITNATMFEVGVKTRIIQRSREVILMADHSKFDAVEPHAVATLSCIKTIISDSGLPETIAQRYQRAGCQLFLPHSIK”, the “total protein half-life in vivo” value runs as follows: under setting [1], 6.15 ± 1.6 h; under setting [3], 0.761 h; under setting [7], 2 h; under setting [8], 2.57 ± 0.049 h; under setting [4], 3.04 ± 0.33 h.
